Measured values as given in patent US20230235054A1 (BIOATLA, published 2023).
Numbering of substitutions follows the chain as printed.

T1: cynoNectin4-mFc (cyno, UniProt A0A2K5WES1 32-349)
T1 construct: Immobilized on the SPR chip; also called cyanoNectin4; not shown: mFc (mouse Fc)
T1 sequence: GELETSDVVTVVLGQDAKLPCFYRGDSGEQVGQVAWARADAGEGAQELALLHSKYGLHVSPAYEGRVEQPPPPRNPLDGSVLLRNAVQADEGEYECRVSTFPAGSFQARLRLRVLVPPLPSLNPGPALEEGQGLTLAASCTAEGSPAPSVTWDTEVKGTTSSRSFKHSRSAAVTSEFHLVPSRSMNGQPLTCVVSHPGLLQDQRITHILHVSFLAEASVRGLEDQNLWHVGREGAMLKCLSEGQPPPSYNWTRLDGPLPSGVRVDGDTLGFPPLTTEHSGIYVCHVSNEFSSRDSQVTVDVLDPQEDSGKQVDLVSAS

T2: huNectin4-His (human, UniProt Q96NY8 32-349)
T2 construct: Immobilized on the SPR chip; also called humanNectin4; human Nectin4; not shown: His tag
T2 sequence (looked up): T1 sequence with A39V, V230I

T3: recombinant human Nectin4 antigen (human, UniProt Q96NY8 32-349)
T3 construct: construct not described
T3 sequence (looked up): T1 sequence with A39V, V230I

T4: human Nectin-4 on cells (human, UniProt Q96NY8 32-510)
T4 sequence (looked up): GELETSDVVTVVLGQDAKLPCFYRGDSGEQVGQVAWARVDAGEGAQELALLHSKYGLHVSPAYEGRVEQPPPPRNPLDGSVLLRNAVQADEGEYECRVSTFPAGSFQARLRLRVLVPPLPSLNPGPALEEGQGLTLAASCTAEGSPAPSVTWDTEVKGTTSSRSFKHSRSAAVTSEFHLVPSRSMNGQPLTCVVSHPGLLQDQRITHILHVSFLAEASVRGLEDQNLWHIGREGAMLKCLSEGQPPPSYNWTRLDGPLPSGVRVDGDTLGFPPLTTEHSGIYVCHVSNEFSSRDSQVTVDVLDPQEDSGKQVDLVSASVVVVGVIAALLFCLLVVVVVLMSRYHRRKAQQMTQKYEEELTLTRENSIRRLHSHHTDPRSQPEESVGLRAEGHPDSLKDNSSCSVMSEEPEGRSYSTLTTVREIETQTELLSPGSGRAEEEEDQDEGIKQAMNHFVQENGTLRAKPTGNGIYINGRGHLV

B1: BAP-143-wildtype (antibody, V domains shown)
VH: EVQLVESGGGLVQPGGSLRLSCAASGFTFSSYNMNWVRQAPGKGLEWVSYISSSSSTIYYADSVKGRFTISRDNAKNSLSLQMNSLRDEDTAVYYCARAYYYGMDVWGQGTTVTVSS
VL: DIQMTQSPSSVSASVGDRVTITCRASQGISGWLAWYQQKPGKAPKFLIYAASTLQSGVPSRFSGSGSGTDFTLTISSLQPEDFATYYCQQANSFPPTFGGGTKVEIK
notes: 150 kDa used in SPR; also called BAP143-00-00; benchmark (BM)
B2: BAP-143-00-01 (antibody, V domains shown)
VH: B1 VH
VL: B1 VL with L33E
notes: Used as a conjugate with a linker payload (CAB ADC)
B3: BAP-143-00-02 (antibody, V domains shown)
VH: B1 VH
VL: B1 VL with F94E
notes: as for B2
B4: BAP-143-00-03 (antibody, V domains shown)
VH: B1 VH
VL: B1 VL with P96D
notes: as for B2
B5: BAP-143-00-04 (antibody, V domains shown)
VH: B1 VH with M34D
VL: B1 VL
notes: as for B2
B6: BAP-143-00-05 (antibody, V domains shown)
VH: B1 VH with R98E
VL: B1 VL
notes: as for B2
B7: BAP-143-00-06 (antibody, V domains shown)
VH: B1 VH with M104D
VL: B1 VL
notes: as for B2

How the values were obtained:
[1] = target: T1, cynoNectin4-mFc; experiment: SPR, cynoNectin4-mFc immobilized, pH 7.4
Method: (§1) Binding kinetics of anti-Nectin4 antibodies were measured by surface plasmon resonance using a SPR2/4 instrument (Sierra Sensors, Hamburg, Germany) and flat amine sensor chips. The SPR sensor contained four flow cells (FC1-FC4), each of which was addressed individually or in groups. huNectin4-His was immobilized in FC2, and cynoNectin4-mFc in FC4. No protein was immobilized in FC1 and FC3 which were used as control surfaces for FC2 and FC4, respectively.
(§2) All injections were done at a flow rate of 25 μL/min at 25° C. The sensor surface was activated with 1-ethyl-3-(3-dimethylaminopropyl)-carbodiimide (EDC) and N-hydroxysuccinimide (NHS) (200 mM/50 mM) for 480 seconds. HuNectin4-His (2 μg/mL in 10 mM NaAc, pH4.5) was injected for 480s and the surface was inactivated by injecting 1M ethanolamine-HCl for 480s. CynoNectin4 was immobilized using the same conditions as described for huNectin4-His, except that the cynoNectin4 was diluted into 10 mM NaAc buffer having pH 5.0. The control surface was activated and deactivated using the same conditions, but without injecting protein. PBST buffer (PBS pH 7.4 with 0.05% TWEEN20™) was used as running buffer for the surface preparation. The running solution was switched to PBST with 30 mM sodium bicarbonate with the pH adjusted as indicated in the figures before the analyte injections. The instrument was equilibrated with the running solution for one hour before the first analyte injection.
(§3) The off-rate was measured for 360s. The chip surface was regenerated after each cycle of interaction analysis by injecting 6 μL of 10 mM glycine (pH 2.0). Flow cells 1 and 3 without immobilized protein were used as control surfaces for reference subtraction.

[2] = target: T2, huNectin4-His; experiment: SPR, huNectin4-His immobilized, pH 6.5
Method: as §1, §2, §3

[3] = target: T3, recombinant human Nectin4 antigen; experiment: pH range ELISA, 30 ng/mL, pH of 50% binding activity
Method: 1) Coat ELISA plates with 100 μL of 1 μg/mL recombinant human Nectin4 antigen in carbonate-bicarbonate coating buffer [0462] 2) Cover plates with sealing film and incubate overnight at 4° C. […] 3) Decant plates and tap out residual liquid on a stack of paper towels [0464] 4) Wash wells twice by dispensing 200 μL of various pH incubation buffer to the wells and completely aspirate the contents [0465] 5) Add 200 μL of various pH incubation buffers (pH5.5, 6.0, 6.2, 6.5, 6.7, 7.0 and 7.4) to the wells. Cover with sealing film and place the plate onto a plate shaker (set to 200 rpm) for 60 minutes at room temperature [0466] 6) Decant plates and tap out residual liquid on a stack of paper towels [0467] 7) Serially dilute test substances in various pH incubation buffers (pH5.5, 6.0, 6.2, 6.5, 6.7, 7.0 and 7.4) to 30 ng/mL [0468] 8) Add 100 μL/well of diluted test substances to the plates [0469] 9) Cover with sealing film and place the plates onto a plate shaker (set to 200 rpm) for 60 minutes at room temperature. [0470] 10) Decant plates and tap out residual liquid on a stack of paper towels. […] 12) Dilute the HRP secondary antibody at 1:2500 in various pH incubation buffers (pH5.5, 6.0, 6.2, 6.5, 6.7, 7.0 and 7.4) [0473] 13) Add 100 μL HRP secondary antibody diluted in various pH incubation buffers (pH5.5, 6.0, 6.2, 6.5, 6.7, 7.0 and 7.4) to each well. […] 14) Cover with sealing film and place the plates onto a plate shaker (set to 200 rpm) for 60 minutes at room temperature. [0475] 15) Decant plates and tap out residual liquid on a stack of paper towels. […] 16) Wash wells three times by dispensing 200 μL of various pH wash buffer (pH5.5, 6.0, 6.2, 6.5, 6.7, 7.0 and 7.4) to the wells and completely aspirating the contents [0477] 17) Dispense 50 μL per well of the TMB substrate solution into all wells of plates.

[4] = target: T4, human Nectin-4 on cells; experiment: cell-based or functional assay

Row | Binder | Kd [1] | Kd [2] | pH inflection point [3] | koff [1] | kon [1] | Ratio (pH 7.4/6.0) of cell killing EC50 [4] | koff [2] | kon [2]
1 | B1 | 0.333 nM | 0.685 nM |  |  |  |  |  | 
2 | B2 | 11.1 nM | 5.15 nM | 6.59 pH | 0.00162 s⁻¹ | 146000 M⁻¹ s⁻¹ | 2.1 | 0.00245 s⁻¹ | 476000 M⁻¹ s⁻¹
3 | B3 | 5.86 nM |  | 6.7 pH | 0.00195 s⁻¹ | 334000 M⁻¹ s⁻¹ | 1.7 |  | 
4 | B4 | 3.85 nM | 2.97 nM | 6.71 pH | 0.000826 s⁻¹ | 215000 M⁻¹ s⁻¹ | 2.6 | 0.00229 s⁻¹ | 771000 M⁻¹ s⁻¹
5 | B5 | 1.33 nM | 1.5 nM | 6.81 pH | 0.00112 s⁻¹ | 840000 M⁻¹ s⁻¹ | 2.7 | 0.00439 s⁻¹ | 2.94e+06 M⁻¹ s⁻¹
6 | B6 | 4.89 nM | 6.23 nM | 6.99 pH | 0.00157 s⁻¹ | 322000 M⁻¹ s⁻¹ | 2 | 0.00453 s⁻¹ | 726000 M⁻¹ s⁻¹
7 | B7 | 0.4 nM | 0.22 nM | 6.77 pH | 0.000335 s⁻¹ | 839000 M⁻¹ s⁻¹ | 1.2 | 0.000726 s⁻¹ | 3.3e+06 M⁻¹ s⁻¹
